# Values of other authors in article PMC6008586, “Analysis of transition state mimicry by tight binding aminothiazoline inhibitors provides insight into catalysis by human O-GlcNAcase” (Chemical Science, 2016).
# Biological target: Asp174 (UniProt position 174, FALLFDDIDHN)
# Assay: kinetics
# Conditions: the article refers the ionisation state to the resting enzyme; free-enzyme versus enzyme-substrate complex is not specified
substance,measurement,value
"O-GlcNAcase (OGA, protein O-GlcNAc hydrolase, GH84) (Homo sapiens)",pKa,5.2
